In patent US9598497B2, “RSPO3 binding agents and uses thereof” (OncoMed Pharmaceuticals, Inc., priority 2012, dated 2017):

T1: human LGR5 (Homo sapiens, UniProt O75473)
T1 construct: ligating amino acids 22-564 of human LGR5 to an N-terminal FLAG tag; expressed in transfected cells; host or cells: HEK-293
T1 sequence (O75473 22-564): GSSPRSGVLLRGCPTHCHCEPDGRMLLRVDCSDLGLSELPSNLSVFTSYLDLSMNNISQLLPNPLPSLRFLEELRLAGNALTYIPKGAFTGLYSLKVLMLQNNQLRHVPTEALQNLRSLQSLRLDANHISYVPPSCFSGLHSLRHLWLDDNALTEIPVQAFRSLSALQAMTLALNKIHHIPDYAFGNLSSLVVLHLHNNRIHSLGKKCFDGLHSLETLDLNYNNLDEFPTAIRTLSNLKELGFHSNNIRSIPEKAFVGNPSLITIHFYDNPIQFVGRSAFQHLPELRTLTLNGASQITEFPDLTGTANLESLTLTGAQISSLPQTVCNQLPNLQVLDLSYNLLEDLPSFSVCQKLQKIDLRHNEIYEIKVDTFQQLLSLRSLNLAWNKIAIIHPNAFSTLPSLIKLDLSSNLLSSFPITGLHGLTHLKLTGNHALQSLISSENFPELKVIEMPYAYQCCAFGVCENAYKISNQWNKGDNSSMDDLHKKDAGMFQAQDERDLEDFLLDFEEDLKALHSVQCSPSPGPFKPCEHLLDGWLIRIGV

B1: RSPO3: full-length human RSPO3 ligated in-frame to a human Fc region (protein)
chain: QNASRGRRQRRMHPNVSQGCQGGCATCSDYNGCLSCKPRLFFALERIGMKQIGVCLSSCPSGYYGTRYPDINKCTKCKADCDTCFNKNFCTKCKSGFYLHLGKCLDNCPEGLEANNHTMECVSIVHCEVSEWNPWSPCTKKGKTCGFKRGTETRVREIIQHPSAKGNLCPPTNETRKCTVQRKKCQKGERGKKGRERKRKKPNKGESKEAIPDSKSLESSKEIPEQRENKQQQKKRKVQDKQKSVSVSTVH
B2: RSPO1: full-length human RSPO1 ligated in-frame to a human Fc region (protein)
chain: SRGIKGKRQRRISAEGSQACAKGCELCSEVNGCLKCSPKLFILLERNDIRQVGVCLPSCPPGYFDARNPDMNKCIKCKIEHCEACFSHNFCTKCKEGLYLHKGRCYPACPEGSSAANGTMECSSPAQCEMSEWSPWGPCSKKQQLCGFRRGSEERTRRVLHAPVGDHAACSDTKETRRCTVRRVPCPEGQKRRKGGQGRRENANRNLARKESKEAGAGSRRRKGQQQQQQQGTVGPLTSAGPA
modifications: left off: a dimerising Fc or GST
notes: full-length human RSPO1 ligated in-frame to a human Fc region
B3: RSPO2: full-length human RSPO2 ligated in-frame to a human Fc region (protein)
chain: QGNRWRRSKRASYVSNPICKGCLSCSKDNGCSRCQQKLFFFLRREGMRQYGECLHSCPSGYYGHRAPDMNRCARCRIENCDSCFSKDFCTKCKVGFYLHRGRCFDECPDGFAPLEETMECVEGCEVGHWSEWGTCSRNNRTCGFKWGLETRTRQIVKKPVKDTIPCPTIAESRRCKMTMRHCPGGKRTPKAKEKRNKKKKRKLIERAQEQHSVFLATDRANQ
modifications: left off: a dimerising Fc or GST
notes: full-length human RSPO2 ligated in-frame to a human Fc region
B4: 131R003: anti-RSPO3 antibody from a mammalian cell antibody library; heavy chain variable region SEQ ID NO:16, light chain variable region SEQ ID NO:17 (antibody, V domains shown)
VH: QVQLKQSGPELVKPGASVKISCKASGYTFTDYSIHWVKQNHGKSLDWIGYIYPSNGDSGYNQKFKNRATLTVDTSYSTAYLEVRRLTFEDSAVYYCATYFANYFDYWGQGTTLTVSSAST
VL: DIVLTQSPASLAVSLGQRATISCKASQSVDYDGDSYMNWYQQKPGQPPKLLIYAASNLESGIPARFSGSGSGTDFTLNIHPVEEEDAATYYCQQSNEDPLTFGAGTKLELKR
modifications: 131R003 Heavy chain variable region; 131R002/131R003 Light chain variable region
B5: h131R010: humanized 131R003 variant, IgG1; heavy chain variable region SEQ ID NO:44, light chain variable region SEQ ID NO:86; ATCC PTA-120420 and PTA-120421 (antibody, V domains shown)
VH: QVQLVQSGAEVKKPGASVKVSCKASGYTFTDYSIHWVRQAPGQGLEWIGYIYPSNGDSGYNQKFKNRVTMTRDTSTSTAYMELSRLRSEDTAVYYCATYFANNFDYWGQGTTLTVSS
VL: DIQMTQSPSSLSASVGDRVTITCKASQSVDYDGDSYMNWYQQKPGKAPKLLIYAASNLESGVPSRFSGSGSGTDFTLTISPVQAEDFATYYCQQSNEDPLTFGAGTKLELKR
modifications: Humanized 131R005/131R007/131R008/ 131R010/131R011 Heavy chain variable region; Humanized 131R010/131R011 Light chain variable region
notes: humanized 131R003 variant, IgG1; ATCC PTA-120420 and PTA-120421

How the values were obtained:
[1] = test system: gene sets characteristic of normal stem cells or cancer stem cells; assay: Microarray gene set enrichment analysis of treated OMP-LU102 tumors; type: in vivo, NOD-SCID mice; conditions: RNA from OMP-LU102 tumors after treatment, FIG. 11B
Method: RNA was prepared from tumors from each of the four experimental groups following the treatment. Gene expression was characterized by microarray analysis.

[2] = molecular target: T1, human LGR5; assay: FACS binding of RSPO-Fc fusion proteins to LGR5 expressed on HEK-293 cells; conditions: 10 μg/ml Fc fusion protein, FIG. 2
Excerpt: A cell surface LGR5 protein was generated by ligating amino acids 22-564 of human LGR5 to an N-terminal FLAG tag and to the transmembrane domain of CD4 and a C-terminal GFP protein tag using standard recombinant DNA techniques (FLAG-LGR5-CD4TM-GFP). RSPO-Fc constructs were generated using standard recombinant DNA techniques. Specifically, full-length human RSPO1, RSPO2, RSPO3 and RSPO4 were ligated in-frame to a human Fc region and the recombinant RSPO-Fc proteins were expressed in insect cells using baculovirus. The fusion proteins were purified from the insect medium using protein A chromatography.
HEK-293 cells were transiently transfected with the FLAG-LGR5-CD4TM-GFP construct. After 48 hours, transfected cells were suspended in ice cold PBS containing 2% FBS and heparin and incubated on ice in the presence of 10 μg/ml RSPO1-Fc, RSPO2-Fc, RSPO3-Fc, RSPO4-Fc, or FZD8-Fc fusion proteins for 15 minutes. A second incubation with 100 μl PE-conjugated anti-human Fc secondary antibody was performed to detect cells bound by the Fc fusion proteins. Cells were incubated with an anti-FLAG antibody (Sigma-Aldrich, St. Louis, Mo.) as a positive control and with an anti-PE antibody as a negative control. The cells were analyzed on a FACSCalibur instrument (BD Biosciences, San Jose, Calif.) and the data was processed using FlowJo software.

[3] = test system: RSPO3-induced β-catenin signaling; assay: TOPflash 6xTCF-luciferase reporter assay in HEK-293 cells with WNT3a and RSPO3; type: cell-based, human
Method: HEK-293 cells were transfected with a 6×TCF-luciferase reporter vector (TOPflash, Millipore, Billerica, Mass.). After 24-48 hrs, the transfected HEK-293 cells were incubated with a combination of WNT3a (5 ng/ml) and human RSPO3 (10 ng/ml, R&D BioSystems, Minneapolis, Minn.) in the presence of anti-RSPO3 antibodies 131R002 and 131R003. Antibodies 131R002 and 131R003 were added to the cells in 4-fold serial dilutions from 20 μg/ml to 0.02 μg/ml. As controls, cells were incubated with a combination of WNT3a and RSPO3, WNT3a only, RSPO3 only, or with no addition. The cells were incubated for 16 hours and luciferase activity was measured using Steady-Glo® Luciferase Assay System according to the manufacturer's instructions (Promega, Madison, Wis.).
HEK-293 cells were transfected with a 6×TCF-luciferase reporter vector (TOPflash, Millipore, Billerica, Mass.). After 24-48 hrs, the transfected HEK-293 cells were incubated with a combination of WNT3a and human RSPO3 in the presence of anti-RSPO3 antibodies 131R003, 131R003 CDR1 variant and 131R003 CDR3 variant. 131R003, 131R003 CDR1 variant, and 131R003 CDR3 variant were added to the cells in 5-fold serial dilutions from 20 μg/ml to 0.006 μg/ml. As controls, cells were incubated with a combination of WNT3a and RSPO3, WNT3a only, RSPO3 only, a control antibody, or with no addition. The cells were incubated for 16 hours and luciferase activity was measured using Steady-Glo® Luciferase Assay System according to the manufacturer's instructions (Promega, Madison, Wis.).
HEK-293 cells were transfected with a 6×TCF-luciferase reporter vector (TOPflash, Millipore, Billerica, Mass.). After 24-48 hrs, the transfected HEK-293 cells were incubated with a combination of WNT3a conditioned medium (5 ng/ml) and human RSPO3 (10 ng/ml, R&D BioSystems) in the presence of anti-RSPO3 antibodies 131R002, 131R006B, or 131R007. Antibodies 131R002, 131R006 or 131R007 were added to the cells in 5-fold serial dilutions from 20 μg/ml to 0.0064 μg/ml. As controls, cells were incubated with WNT3a conditioned medium alone, a combination of WNT3a conditioned medium and human RSPO3, or with no addition to cells. The cells were incubated for 16 hours and luciferase activity was measured using Steady-Glo® Luciferase Assay System according to the manufacturer's instructions (Promega, Madison, Wis.).
HEK-293 cells were transfected with a 6×TCF-luciferase reporter vector (TOPflash, Millipore, Billerica, Mass.). […] The cells were incubated for 16 hours and luciferase activity was measured using Steady-Glo® Luciferase Assay System according to the manufacturer's instructions (Promega, Madison, Wis.).

Molecule | binding to LGR5 expressed on the surface of HEK-293 cells [2] | other results
N.N.O=C([O-])C1(C(=O)[O-])CCC1.[Pt+2] [carboplatin, reference compound] | – | expression of gene sets characteristic of normal stem cells or cancer stem cells [1]: did not have this effect on gene expression
B1 | bound to LGR5 | –
B2 | bound to LGR5 | –
B3 | bound to LGR5 | –
B4 | – | RSPO3-induced β-catenin signaling ([3]; WNT3a 5 ng/ml + RSPO3 10 ng/ml, antibody 20 to 0.02 μg/ml, FIG. 3): reduced RSPO3-induced β-catenin signaling in a dose-dependent manner
B5 | – | WNT3a/RSPO3-induced β-catenin signaling ([3]; WNT3a conditioned medium 5 ng/ml + human RSPO3 2 ng/ml, antibody 20 to 0.0064 μg/ml, FIG. 13): reduced WNT3a/RSPO3-induced β-catenin signaling in a dose-dependent manner and to a similar extent as h131R007
